From article PMC6433120 (Nature, 2018) come the findings set out here.

The test has as its target T1, CC-SAM domain of murine KSR1 (mouse, UniProt Q61097 25-170).
T1 sequence (looked up): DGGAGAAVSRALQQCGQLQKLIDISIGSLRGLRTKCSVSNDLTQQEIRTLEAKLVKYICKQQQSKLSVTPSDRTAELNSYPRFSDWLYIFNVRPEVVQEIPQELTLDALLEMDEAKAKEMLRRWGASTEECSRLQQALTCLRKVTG
In words: NMR titration.

B1: BRS domain of human BRAF (domain or fragment, UniProt P15056 36-114, looked up)
chain: SSAADPAIPEEVWNIKQMIKLTQEHIEALLDKFGGEHNPPSIYLEAYEEYTSKLDALQQREQQLLESLGNGTDFSVSSS
B1: the binding result is “binds”.
